Measured values published in PMC7437921.

How the values were obtained:
Assay in all cases: FRET or BRET
[1] = target: CXCR4(D187A) (human) (UniProt P61073)
[2] = target: CXCR4(R30Q) (human) (UniProt P61073)
[3] = target: CXCR4(Δ1–25), HA-free (tagless) (human) (UniProt P61073)
[4] = target: CXCR4(Δ1–15), HA-free (tagless) (human) (UniProt P61073)

efficacy (Emax) remaining, % of WT CXCR4 [1]: 30%
decrease in efficacy (Emax) vs WT CXCR4 [2]: 30%
efficacy (Emax) remaining, % of WT CXCR4 [3]: 23%
efficacy (Emax) remaining, % of WT CXCR4 [4]: 33%
Substance: renilla GFP fused to mini-Gαsi
